# Measured values taken from patent publication US20220195455A1, “DELIVERY OF CRISPR/MCAS9 THROUGH EXTRACELLULAR VESICLES FOR GENOME EDITING” (University of Georgia Research Foundation, Inc., priority 2019, published 2022).
# B1: full length NMT1 protein (Homo sapiens) (protein)
# chain: MADESETAVKPPAPPLPQMMEGNGNGHEHCSDCENEEDNSYNRGGLSPANDTGAKKKKKKQKKKKEKGSETDSAQDQPVKMNSLPAERIQEIQKAIELFSVGQGPAKTMEEASKRSYQFWDTQPVPKLGEVVNTHGPVEPDKDNIRQEPYTLPQGFTWDALDLGDRGVLKELYTLLNENYVEDDDNMFRFDYSPEFLLWALRPPGWLPQWHCGVRVVSSRKLVGFISAIPANIHIYDTEKKMVEINFLCVHKKLRSKRVAPVLIREITRRVHLEGIFQAVYTAGVVLPKPVGTCRYWHRSLNPRKLIEVKFSHLSRNMTMQRTMKLYRLPETPKTAGLRPMETKDIPVVHQLLTRYLKQFHLTPVMSQEEVEHWFYPQENIIDTFVVENANGEVTDFLSFYTLPSTIMNHPTHKSLKAAYSFYNVHTQTPLLDLMSDALVLAKMKGFDVFNALDLMENKTFLEKLKFGIGDGNLQYYLYNWKCPSMGAEKVGLVLQ
# notes: Km and Vmax catalyzed by full length NMT1 protein were calculated
# What was measured:
# Experiment in all cases: NMT1 activity assay (CoA release, fluorescence);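 also: released CoA from NMT1-catalysed myristoylation of octapeptide substrates detected by fluorescence after reaction with a maleimide coumarin dye (excitation 390 nm, emission 479 nm), triplicate points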
# Format in all cases: biochemical
# Conditions in all cases: other: octapeptide as NMT1 substrate; full length NMT1
# [1] = substrate: C[C@H](NC(=O)[C@H](CCCCN)NC(=O)[C@H](CO)NC(=O)[C@H](CO)NC(=O)[C@H](CCCCN)NC(=O)[C@H](CCCNC(=N)N)NC(=O)CN)C(=O)N[C@@H](CCCCN)C(=O)O
# Method: (§1) The amount of the released CoA were reacted with 7-diethylamino-3-(4′-maleimidylphenyl)-4-methylcoumarin. The assay was performed in 96-well black microplates. The produced fluorescence intensity was measured by Flex Station 3, and detected by microplate reader (excitation at 390 nm; emission at 479 nm).
# (§2) The amount of the released CoA were reacted with 7-diethylamino-3-(4′-maleimidylphenyl)-4-methylcoumarin. The assay was performed in 96-well black microplates. The produced fluorescence intensity was measured by Flex Station 3, and detected by microplate reader (excitation at 390 nm; emission at 479 nm). To measure the Km and Vmax of NMT1 which catalyzed various octapeptides substrates derived from various proteins, twenty-five octapeptides were synthesized by GenScript. […] Each data point has three repeats.
# (§3) Km and Vmax catalyzed by full length NMT1 protein were calculated.
# [2] = substrate: CSCC[C@H](NC(=O)[C@@H](NC(=O)[C@H](CCC(=O)O)NC(=O)CN)[C@@H](C)O)C(=O)N[C@@H](CO)C(=O)N[C@@H](CCCCN)C(=O)N[C@@H](CCCNC(=N)N)C(=O)N[C@@H](CC(C)C)C(=O)O
# Method: as §1, §2, §3
# [3] = substrate: N=C(N)NCCC[C@H](NC(=O)[C@H](CCCNC(=N)N)NC(=O)[C@H](CCCCN)NC(=O)[C@H](CO)NC(=O)[C@H](Cc1ccccc1)NC(=O)[C@H](Cc1ccccc1)NC(=O)[C@H](CS)NC(=O)CN)C(=O)O
# Method: as §1, §2, §3
# [4] = substrate: CC(C)[C@H](NC(=O)[C@H](CS)NC(=O)CN)C(=O)N[C@@H](CCC(N)=O)C(=O)N[C@@H](CS)C(=O)N[C@@H](CCCCN)C(=O)N[C@@H](CC(=O)O)C(=O)N[C@@H](CCCCN)C(=O)O
# Method: as §1, §2, §3
# [5] = substrate: CC(C)C[C@H](NC(=O)CN)C(=O)N[C@@H](CC(C)C)C(=O)N[C@@H](CC(=O)O)C(=O)N[C@@H](CCCNC(=N)N)C(=O)N[C@@H](CC(C)C)C(=O)N[C@@H](CO)C(=O)N[C@H](C(=O)O)C(C)C
# Method: as §1, §2, §3
# [6] = substrate: C[C@H](NC(=O)[C@@H]1CCCN1C(=O)CNC(=O)[C@H](CO)NC(=O)[C@H](CCC(N)=O)NC(=O)[C@H](CCCCN)NC(=O)[C@H](C)NC(=O)CN)C(=O)O
# Method: as §1, §2, §3
# [7] = substrate: C[C@H](NC(=O)[C@H](CCCCN)NC(=O)[C@H](CO)NC(=O)[C@H](CO)NC(=O)[C@H](CCC(N)=O)NC(=O)[C@H](CO)NC(=O)CN)C(=O)N1CCC[C@H]1C(=O)O
# Method: as §1, §2, §3
# [8] = substrate: N=C(N)NCCC[C@H](NC(=O)[C@H](Cc1ccc(O)cc1)NC(=O)[C@H](Cc1c[nH]cn1)NC(=O)[C@H](CCCNC(=N)N)NC(=O)[C@H](CO)NC(=O)[C@H](CCC(=O)O)NC(=O)[C@H](CCCNC(=N)N)NC(=O)CN)C(=O)O
# Method: as §1, §2, §3
# [9] = substrate: CC[C@H](C)[C@H](NC(=O)CNC(=O)[C@H](CCCNC(=N)N)NC(=O)[C@@H](NC(=O)[C@@H](NC(=O)[C@H](CC(C)C)NC(=O)[C@H](C)NC(=O)CN)C(C)C)[C@@H](C)CC)C(=O)O
# Method: as §1, §2, §3
# [10] = substrate: NCCCC[C@H](NC(=O)[C@@H]1CCCN1C(=O)[C@H](CCCCN)NC(=O)[C@H](CO)NC(=O)[C@H](CCCCN)NC(=O)[C@H](CC(N)=O)NC(=O)[C@H](CO)NC(=O)CN)C(=O)O
# Method: as §1, §2, §3
# [11] = substrate: N=C(N)NCCC[C@H](NC(=O)[C@H](CS)NC(=O)CN)C(=O)N[C@@H](CCC(N)=O)C(=O)N[C@@H](CO)C(=O)N[C@@H](CO)C(=O)N[C@@H](CCC(=O)O)C(=O)N[C@@H](CCC(=O)O)C(=O)O
# Method: as §1, §2, §3
# [12] = substrate: CC[C@H](C)[C@H](NC(=O)[C@@H](NC(=O)[C@H](CC(C)C)NC(=O)[C@H](CC(C)C)NC(=O)CN)[C@@H](C)O)C(=O)N[C@@H](CC(C)C)C(=O)N[C@@H](CCCCN)C(=O)N[C@@H](CCCCN)C(=O)O
# Method: as §1, §2, §3
# [13] = substrate: CC(C)[C@H](NC(=O)[C@H](CCCNC(=N)N)NC(=O)[C@H](CO)NC(=O)CN)C(=O)N[C@@H](CO)C(=O)N[C@@H](CCCNC(=N)N)C(=O)N[C@@H](CCC(=O)O)C(=O)N[C@@H](CC(=O)O)C(=O)O
# Method: as §1, §2, §3
# [14] = substrate: CC(C)C[C@H](NC(=O)[C@H](CCC(N)=O)NC(=O)[C@H](CCC(N)=O)NC(=O)[C@H](CO)NC(=O)[C@H](C)NC(=O)[C@H](CCCCN)NC(=O)[C@H](CCC(N)=O)NC(=O)CN)C(=O)O
# Method: as §1, §2, §3
# [15] = substrate: CC(C)C[C@H](NC(=O)[C@H](Cc1c[nH]cn1)NC(=O)[C@H](C)NC(=O)CN)C(=O)N[C@H](C(=O)N[C@@H](CCCNC(=N)N)C(=O)N[C@@H](CCCNC(=N)N)C(=O)N[C@@H](Cc1ccc(O)cc1)C(=O)O)C(C)C
# Method: as §1, §2, §3
# [16] = substrate: CC(C)C[C@H](NC(=O)[C@H](C)NC(=O)[C@H](CO)NC(=O)[C@H](CC(N)=O)NC(=O)[C@H](CCC(=O)O)NC(=O)[C@H](CO)NC(=O)CN)C(=O)N[C@@H](CCCCN)C(=O)O
# Method: as §1, §2, §3
# [17] = substrate: CC[C@H](C)[C@H](NC(=O)[C@H](CCCCN)NC(=O)[C@H](CO)NC(=O)[C@H](CC(C)C)NC(=O)[C@@H](NC(=O)[C@H](CCCCN)NC(=O)CN)C(C)C)C(=O)N[C@@H](Cc1ccccc1)C(=O)O
# Method: as §1, §2, §3
# [18] = substrate: CC(C)C[C@H](NC(=O)[C@H](CS)NC(=O)[C@H](CC(N)=O)NC(=O)CN)C(=O)N[C@@H](CCCCN)C(=O)N[C@@H](CO)C(=O)N1CCC[C@H]1C(=O)N[C@H](C(=O)O)[C@@H](C)O
# Method: as §1, §2, §3
# [19] = substrate: C[C@H](NC(=O)[C@@H](NC(=O)[C@H](CCCCN)NC(=O)[C@H](CO)NC(=O)[C@H](Cc1ccccc1)NC(=O)[C@H](CCC(N)=O)NC(=O)[C@H](C)NC(=O)CN)[C@@H](C)O)C(=O)O
# Method: as §1, §2, §3
# [20] = substrate: CC(C)C[C@H](NC(=O)CNC(=O)CN)C(=O)N[C@@H](Cc1ccccc1)C(=O)N[C@@H](CO)C(=O)N[C@@H](CCCNC(=N)N)C(=O)N[C@@H](Cc1c[nH]c2ccccc12)C(=O)N[C@@H](CCCNC(=N)N)C(=O)O
# Method: as §1, §2, §3
# [21] = substrate: CC[C@H](C)[C@H](NC(=O)[C@H](CS)NC(=O)CN)C(=O)N[C@@H](CCCCN)C(=O)N[C@@H](CO)C(=O)N[C@@H](CCCCN)C(=O)NCC(=O)N[C@@H](CCCCN)C(=O)O
# Method: as §1, §2, §3
# [22] = substrate: CC[C@H](C)[C@H](NC(=O)[C@H](CS)NC(=O)CN)C(=O)N[C@@H](CCCCN)C(=O)N[C@@H](CO)C(=O)N[C@@H](CCCCN)C(=O)N[C@@H](CCC(=O)O)C(=O)N[C@@H](CC(N)=O)C(=O)O
# Method: as §1, §2, §3
# [23] = substrate: C[C@H](NC(=O)[C@H](CC(N)=O)NC(=O)CN)C(=O)N[C@@H](CCC(N)=O)C(=O)N[C@@H](CCC(=O)O)C(=O)N[C@@H](CCCNC(=N)N)C(=O)N1CCC[C@H]1C(=O)N[C@@H](CO)C(=O)O
# Method: as §1, §2, §3
# [24] = substrate: C[C@H](N)C(=O)N[C@@H](CO)C(=O)N[C@@H](CC(N)=O)C(=O)N[C@@H](CCCCN)C(=O)N[C@@H](CO)C(=O)N[C@@H](CCCCN)C(=O)N1CCC[C@H]1C(=O)N[C@@H](CCCCN)C(=O)O
# Method: as §1, §2, §3
protein,measurement,setting,value
B1,Km,[1],1.2 µM
same,Vmax,[1],1.8 µM/min
same,Km,[2],13.0 µM
same,Vmax,[2],5.3 µM/min
same,Km,[3],13.6 µM
same,Vmax,[3],60.8 µM/min
same,Km,[4],5.2 µM
same,Vmax,[4],54.9 µM/min
same,Vmax,[5],1.8 µM/min
same,Km,[6],2.0 µM
same,Vmax,[6],1.6 µM/min
same,Km,[7],11.7 µM
same,Vmax,[7],6.6 µM/min
same,Vmax,[8],2 µM/min
same,Km,[9],0.5 µM
same,Vmax,[9],1.2 µM/min
same,Km,[10],14.3 µM
same,Vmax,[10],25.8 µM/min
same,Km,[11],15.7 µM
same,Vmax,[11],64.4 µM/min
same,Km,[12],0.4 µM
same,Vmax,[12],1.2 µM/min
same,Km,[13],79.2 µM
same,Vmax,[13],12.9 µM/min
same,Km,[14],15.7 µM
same,Vmax,[14],3.4 µM/min
same,Km,[15],16.4 µM
same,Vmax,[15],2.8 µM/min
same,Km,[16],0.8 µM
same,Vmax,[16],1.7 µM/min
same,Km,[17],4.4 µM
same,Vmax,[17],13.6 µM/min
same,Km,[18],16.7 µM
same,Vmax,[18],61.1 µM/min
same,Km,[19],38.4 µM
same,Vmax,[19],6.4 µM/min
same,Km,[20],10.3 µM
same,Vmax,[20],21.9 µM/min
same,Km,[21],22.5 µM
same,Vmax,[21],64.7 µM/min
same,Km,[22],14.4 µM
same,Vmax,[22],61 µM/min
same,Km,[23],1.4 µM
same,Vmax,[23],2 µM/min
same,Vmax,[24],1 µM/min
